Measurements published in PMC6166021.

Tested on: T1, NtcA (His6-tagged) (Nostoc sp. PCC 7120), ORF:1390dea6
T1 sequence: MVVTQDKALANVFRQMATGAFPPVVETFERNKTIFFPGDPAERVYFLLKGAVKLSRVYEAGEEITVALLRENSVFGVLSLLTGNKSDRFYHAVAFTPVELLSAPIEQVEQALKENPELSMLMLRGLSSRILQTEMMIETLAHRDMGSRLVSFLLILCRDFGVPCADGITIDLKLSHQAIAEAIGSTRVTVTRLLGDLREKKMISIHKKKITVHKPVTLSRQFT
Assay: EMSA
Settings: EMSA as in Muro-Pastor et al. 1999; buffer, salt, pH and temperature not given in the material

| Sequence | binding |
| --- | --- |
| ATCGATACTCTCGCAACAACGAAAGAATAGTAGTTTCATCAACCTCTAAACCTTTATATCTCCATACCCCTACACCCTAAACCCATATTTTGAGGGTATAGCGTAAGAACCCTACACCCGTCAGCCTCTTCTCCCCCCATTGACATTTTTGAAATATTCTGAAAGATAGAGGCTGATTACCTCCGGGTATATCTTTTTTCGGTAAATTTTTTCAAAAAAACTGTGTTGCCTGTATGAATATTGTTAAGAAAAGTTGCCCGTTGCATTTTGGGAATACGCAGCCGGGTTTTAACTC (double strand) [nsrR1 promoter fragment, mutated NtcA site (TAC to ATG)] | no binding |
| ATCGATACTCTCGCAACAACGAAAGAATAGTAGTTTCATCAACCTCTAAACCTTTATATCTCCATACCCCTACACCCTAAACCCATATTTTGAGGGTATAGCGTAAGAACCCTACACCCGTCAGCCTCTTCTCCCCCCATTGACATTTTTGAAATATTCTGAAAGATAGAGGCTGATTACCTCCGGGTATATCTTTTTTCGGTAAATTTTTTCAAAAAAACTGTGTTGCCTGTTACAATATTGTTAAGAAAAGTTGCCCGTTGCATTTTGGGAATACGCAGCCGGGTTTTAACTC (double strand) [nsrR1 promoter fragment WT (-239 to +50)] | binds |
